How the values were obtained:
[1] = target: T1, claudin 6 (CLDN6) protein (human, UniProt P56747 1-220); experiment: Western blot of extract of HEK293T cells expressing CLDN6
T1 construct: also called human CLDN6 protein
T1 sequence: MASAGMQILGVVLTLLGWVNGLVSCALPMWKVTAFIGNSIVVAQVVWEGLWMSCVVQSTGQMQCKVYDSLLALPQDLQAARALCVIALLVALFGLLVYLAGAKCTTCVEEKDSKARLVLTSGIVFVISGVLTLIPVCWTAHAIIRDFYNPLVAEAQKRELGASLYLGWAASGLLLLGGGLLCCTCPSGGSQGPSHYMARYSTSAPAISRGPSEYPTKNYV

[2] = target: T2, antigen peptide having the amino acid sequence from the 208th position to the 220th position of the human … (human); experiment: ELISA of hybridoma culture supernatant on coated antigen peptide
T2 construct: Coupled to KLH for immunisation
T2 peptide: SRGPSEYPTKNYV
Procedure: After 4 days of culture, the medium was exchanged with 100 μL of hybridoma medium. Positive clones were screened by ELISA using 50 μL of the culture supernatant 2 days after the exchange. The screening was performed by the following procedure.
First, the antigen peptide solution was diluted to 3 μg/mL, 100 μL was added to each well of a 96-well ELISA plate, and the mixture was allowed to stand overnight at 37° C. Then, the antigen peptide solution was removed from each well, the wells were washed with 200 μL of PBS, then a blocking solution (1% bovine serum albumin/PBS) was added, and the mixture was allowed to stand at 37° C. for 1 hour. Then, the blocking solution was removed from each well, the wells washed with 200 μL of PBS, 50 μL of culture supernatant was added, and the mixture was reacted at 37° C. for 1 hour. After removing the culture supernatant from each well, the wells were washed 3 times with 200 μL of PBS. […] After that, the secondary antibody solution was removed from each well, the wells were washed 3 times with PBS, and then the color was developed using TMB Substrate Set (BioLegend) with the method recommended by the manufacturer, and the absorbance was measured.

CLDN1 = target: T3, CLDN1 (UniProt O95832 1-211, limits assumed); experiment: Western blot of extract of HEK293T cells expressing the claudin; undiluted culture supernatant
T3 construct: whole, on cells; also called claudin 1
T3 sequence (looked up): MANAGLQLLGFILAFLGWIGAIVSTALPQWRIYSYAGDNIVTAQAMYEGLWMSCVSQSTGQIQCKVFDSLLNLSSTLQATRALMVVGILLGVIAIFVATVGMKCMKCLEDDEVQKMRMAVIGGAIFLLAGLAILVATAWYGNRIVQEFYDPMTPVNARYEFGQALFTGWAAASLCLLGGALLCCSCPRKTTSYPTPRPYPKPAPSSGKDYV
Procedure: (§1) 48 hours after the introduction of each gene, protein was extracted using a lysate in which the proteolytic enzyme inhibitor, Complete mini EDTA-free (Roche Diagnostics) was added to CelLytic™ MT Cell Lysis Reagent (Sigma-Aldrich) at a concentration of […]. SDS-PAGE, […], and antibody reaction were sequentially performed according to a standard protocol, chemiluminescence was performed by ECL™ Prime Western Blotting Detection reagent (GE Healthcare), and images were taken using CCD imager Image Quant LAS4000 (GE Healthcare). The primary antibody was reacted overnight at 4° C. using a culture supernatant stock solution of αCLDN6 #C6C15-1, and the secondary antibodies were reacted for 30 minutes using ECL™ Rat IgG, HRP-linked whole antibody (Sigma-Aldrich) diluted 2,000-fold with PBS, and ECL™ Rabbit IgG and HRP-linked whole antibody (Sigma-Aldrich) described in Table 1 diluted 5,000-fold with PBS, respectively.
(§2) In order to confirm the antigen specificity and cross-reactivity of the anti-CLDN6 monoclonal antibody (αCLDN6 #C6C15-1) produced in the Examples, Western blotting was performed for CLDN1, CLDN4, CLDN5, CLDN6, and CLDN9 for verification.

CLDN4 = target: T4, CLDN4 (UniProt O14493 1-209, limits assumed); experiment: as above
T4 construct: whole, on cells; also called claudin 4
T4 sequence (looked up): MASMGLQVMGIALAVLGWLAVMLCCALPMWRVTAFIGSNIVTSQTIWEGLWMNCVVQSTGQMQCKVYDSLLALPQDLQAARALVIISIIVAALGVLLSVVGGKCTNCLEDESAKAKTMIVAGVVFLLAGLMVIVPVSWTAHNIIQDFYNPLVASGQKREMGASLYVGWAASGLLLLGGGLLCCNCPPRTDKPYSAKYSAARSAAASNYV
Procedure: as §1, §2

CLDN5 = target: T5, CLDN5 (UniProt O00501 1-218, limits assumed); experiment: as above
T5 construct: whole, on cells; also called claudin 5
T5 sequence (looked up): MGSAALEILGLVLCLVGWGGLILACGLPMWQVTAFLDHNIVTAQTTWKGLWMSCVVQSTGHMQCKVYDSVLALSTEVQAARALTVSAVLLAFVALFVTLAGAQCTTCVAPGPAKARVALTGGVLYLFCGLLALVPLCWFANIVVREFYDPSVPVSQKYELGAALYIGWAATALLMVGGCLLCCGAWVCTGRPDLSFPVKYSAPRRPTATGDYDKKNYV
Procedure: as §1, §2

CLDN9 = target: T6, CLDN9 (UniProt O95484 1-217, limits assumed); experiment: as above
T6 construct: whole, on cells; also called claudin 9
T6 sequence (looked up): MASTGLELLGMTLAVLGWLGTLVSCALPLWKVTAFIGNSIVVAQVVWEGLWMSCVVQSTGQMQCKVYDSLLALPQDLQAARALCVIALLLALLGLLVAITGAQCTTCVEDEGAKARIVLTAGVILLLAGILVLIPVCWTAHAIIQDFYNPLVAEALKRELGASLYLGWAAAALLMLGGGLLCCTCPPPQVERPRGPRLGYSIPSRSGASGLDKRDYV
Procedure: as §1, §2

binding result [1]: binds | binding result [2]: binds | binding result (CLDN1): no binding | binding result (CLDN4): no binding | binding result (CLDN5): no binding | binding result (CLDN9): no binding
B1: Rat αCLDN6 #C6C15-1 monoclonal antibody (antibody, V domains shown)
VH: EVKLVETGGGLVKPGGSLRLSCATSGFNFNDYFMNWVRQAPGKGLEWVAQIRNKNYNYATYYAESLEGRVTISRDDSKSSVYLQVSSLRAEDTAIYYCTRGAYWGQGVMVTVSS
VL: DIVMTQSPSFLSASVGERVTLSCRASQNINKYLDWYQQKLGEAPKLLIYDTNNLHAGIPSRFSGSGSGTDYTLTISSLQPEDVATYFCLQRNSWPYTFGAGTKLELK
notes: Rat hybridoma monoclonal antibody (detected with anti-rat IgG), used as undiluted culture supernatant; constant regions and isotype are not; also called αCLDN6 #C6C15-1 antibody; ACLDN6 #C6C15-1 antibody

Reference: patent publication US20220018842A1 (FUKUSHIMA MEDICAL UNIVERSITY, published 2022)
